Results on 19 molecules are retold here after patent US20250339569A1 (3B PHARMACEUTICALS, published 2025).

B1: 3BP-4450 (peptide)
peptide: {DOTA-PPAc″}-SCE[dP]D[Phe(3-NHCO(CH2)3SO2NH2)]LTWSC-NH2
modifications: linker 2-11 via mXylylene; reading uncertain
B2: 3BP-4451 (peptide)
peptide: {DOTA-PPAc″}-RCE[dP]D[Phe(3-NHCO(CH2)3SO2NH2)]LTWSC-NH2
modifications: linker 2-11 via mXylylene; reading uncertain
B3: 3BP-3315 (peptide)
peptide: Ac-VYCE[Sar]DWLT[Bta]QC-NH2
modifications: linker 3-12 via mXylylene
SMILES: CC(=O)N[C@H](C(=O)N[C@@H](Cc1ccc(O)cc1)C(=O)N[C@H]1CSCc2cccc(c2)CSC[C@@H](C(N)=O)NC(=O)[C@H](CCC(N)=O)NC(=O)[C@H](Cc2csc3ccccc23)NC(=O)[C@H]([C@@H](C)O)NC(=O)[C@H](CC(C)C)NC(=O)[C@H](Cc2c[nH]c3ccccc23)NC(=O)[C@H](CC(=O)O)NC(=O)CN(C)C(=O)[C@H](CCC(=O)O)NC1=O)C(C)C
notes: also called Ac-Val-Tyr-[Cys(3MeBn)-Glu-Nmg-Asp-Trp-Leu-Thr-Bta-Gln-Cys]-NH2
B4: 3BP-3312 (peptide)
peptide: Ac-VYCE[Sar]DWLT[Trp(5-Cl)]QC-NH2
modifications: linker 3-12 via mXylylene
SMILES: CC(=O)N[C@H](C(=O)N[C@@H](Cc1ccc(O)cc1)C(=O)N[C@H]1CSCc2cccc(c2)CSC[C@@H](C(N)=O)NC(=O)[C@H](CCC(N)=O)NC(=O)[C@H](Cc2c[nH]c3ccc(Cl)cc23)NC(=O)[C@H]([C@@H](C)O)NC(=O)[C@H](CC(C)C)NC(=O)[C@H](Cc2c[nH]c3ccccc23)NC(=O)[C@H](CC(=O)O)NC(=O)CN(C)C(=O)[C@H](CCC(=O)O)NC1=O)C(C)C
notes: also called Ac-Val-Tyr-[Cys(3MeBn)-Glu-Nmg-Asp-Trp-Leu-Thr-5Clw-Gln-Cys]-NH2
B5: 3BP-3310 (peptide)
peptide: Ac-VYCE[Sar]D[Trp(5-OH)]LTWQC-NH2
modifications: linker 3-12 via mXylylene
SMILES: CC(=O)N[C@H](C(=O)N[C@@H](Cc1ccc(O)cc1)C(=O)N[C@H]1CSCc2cccc(c2)CSC[C@@H](C(N)=O)NC(=O)[C@H](CCC(N)=O)NC(=O)[C@H](Cc2c[nH]c3ccccc23)NC(=O)[C@H]([C@@H](C)O)NC(=O)[C@H](CC(C)C)NC(=O)[C@H](Cc2c[nH]c3ccc(O)cc23)NC(=O)[C@H](CC(=O)O)NC(=O)CN(C)C(=O)[C@H](CCC(=O)O)NC1=O)C(C)C
notes: also called Ac-Val-Tyr-[Cys(3MeBn)-Glu-Nmg-Asp-Hyw-Leu-Thr-Trp-Gln-Cys]-NH2
B6: 3BP-3063 (peptide)
peptide: Ac-VY[Pen]EGDWLTWQC-NH2
modifications: linker 3-12 via mXylylene
SMILES: CC(=O)N[C@H](C(=O)N[C@@H](Cc1ccc(O)cc1)C(=O)N[C@@H]1C(=O)N[C@@H](CCC(=O)O)C(=O)NCC(=O)N[C@@H](CC(=O)O)C(=O)N[C@@H](Cc2c[nH]c3ccccc23)C(=O)N[C@@H](CC(C)C)C(=O)N[C@@H]([C@@H](C)O)C(=O)N[C@@H](Cc2c[nH]c3ccccc23)C(=O)N[C@@H](CCC(N)=O)C(=O)N[C@H](C(N)=O)CSCc2cccc(c2)CSC1(C)C)C(C)C
B7: 3BP-3572 (peptide)
peptide: Ac-V[Tic]CE[dP]DWLTWSC-NH2
modifications: linker 3-12 via mXylylene
SMILES: CC(=O)N[C@H](C(=O)N1Cc2ccccc2C[C@H]1C(=O)N[C@H]1CSCc2cccc(c2)CSC[C@@H](C(N)=O)NC(=O)[C@H](CO)NC(=O)[C@H](Cc2c[nH]c3ccccc23)NC(=O)[C@H]([C@@H](C)O)NC(=O)[C@H](CC(C)C)NC(=O)[C@H](Cc2c[nH]c3ccccc23)NC(=O)[C@H](CC(=O)O)NC(=O)[C@H]2CCCN2C(=O)[C@H](CCC(=O)O)NC1=O)C(C)C
notes: also called Ac-Val-Tic-[Cys(3MeBn)-Glu-pro-Asp-Trp-Leu-Thr-Trp-Ser-Cys]-NH2
B8: 3BP-3502 (peptide)
peptide: Ac-VYCE[dP]DW[Aib]TWAC-NH2
modifications: linker 3-12 via mXylylene
SMILES: CC(=O)N[C@H](C(=O)N[C@@H](Cc1ccc(O)cc1)C(=O)N[C@H]1CSCc2cccc(c2)CSC[C@@H](C(N)=O)NC(=O)[C@H](C)NC(=O)[C@H](Cc2c[nH]c3ccccc23)NC(=O)[C@H]([C@@H](C)O)NC(=O)C(C)(C)NC(=O)[C@H](Cc2c[nH]c3ccccc23)NC(=O)[C@H](CC(=O)O)NC(=O)[C@H]2CCCN2C(=O)[C@H](CCC(=O)O)NC1=O)C(C)C
notes: also called Ac-Val-Tyr-[Cys(3MeBn)-Glu-pro-Asp-Trp-Aib-Thr-Trp-Ala-Cys]-NH2
B9: 3BP-3043 (peptide)
peptide: Ac-[dV]YCEGDWLTWQC-NH2
modifications: linker 3-12 via mXylylene
SMILES: CC(=O)N[C@@H](C(=O)N[C@@H](Cc1ccc(O)cc1)C(=O)N[C@H]1CSCc2cccc(c2)CSC[C@@H](C(N)=O)NC(=O)[C@H](CCC(N)=O)NC(=O)[C@H](Cc2c[nH]c3ccccc23)NC(=O)[C@H]([C@@H](C)O)NC(=O)[C@H](CC(C)C)NC(=O)[C@H](Cc2c[nH]c3ccccc23)NC(=O)[C@H](CC(=O)O)NC(=O)CNC(=O)[C@H](CCC(=O)O)NC1=O)C(C)C
B10: 3BP-3053 (peptide)
peptide: Ac-VYCEGAWLTWQC-NH2
modifications: linker 3-12 via mXylylene
SMILES: CC(=O)N[C@H](C(=O)N[C@@H](Cc1ccc(O)cc1)C(=O)N[C@H]1CSCc2cccc(c2)CSC[C@@H](C(N)=O)NC(=O)[C@H](CCC(N)=O)NC(=O)[C@H](Cc2c[nH]c3ccccc23)NC(=O)[C@H]([C@@H](C)O)NC(=O)[C@H](CC(C)C)NC(=O)[C@H](Cc2c[nH]c3ccccc23)NC(=O)[C@H](C)NC(=O)CNC(=O)[C@H](CCC(=O)O)NC1=O)C(C)C
B11: 3BP-3056 (peptide)
peptide: Ac-VYCEGDWLAWQC-NH2
modifications: linker 3-12 via mXylylene
SMILES: CC(=O)N[C@H](C(=O)N[C@@H](Cc1ccc(O)cc1)C(=O)N[C@H]1CSCc2cccc(c2)CSC[C@@H](C(N)=O)NC(=O)[C@H](CCC(N)=O)NC(=O)[C@H](Cc2c[nH]c3ccccc23)NC(=O)[C@H](C)NC(=O)[C@H](CC(C)C)NC(=O)[C@H](Cc2c[nH]c3ccccc23)NC(=O)[C@H](CC(=O)O)NC(=O)CNC(=O)[C@H](CCC(=O)O)NC1=O)C(C)C
B12: 3BP-3278 (peptide)
peptide: {DOTA-Ttds″}-VYCE[Sar]DWLTWAC-NH2
modifications: linker 3-12 via mXylylene; not fully specified
notes: also called DOTA-Ttds-Val-Tyr-[Cys(3MeBn)-Glu-Nmg-Asp-Trp-Leu-Thr-Trp-Ala-Cys]-NH2
B13: 3BP-3066 (peptide)
peptide: Ac-VYCEGDW[Tle]TWQC-NH2
modifications: linker 3-12 via mXylylene
SMILES: CC(=O)N[C@H](C(=O)N[C@@H](Cc1ccc(O)cc1)C(=O)N[C@H]1CSCc2cccc(c2)CSC[C@@H](C(N)=O)NC(=O)[C@H](CCC(N)=O)NC(=O)[C@H](Cc2c[nH]c3ccccc23)NC(=O)[C@H]([C@@H](C)O)NC(=O)[C@H](C(C)(C)C)NC(=O)[C@H](Cc2c[nH]c3ccccc23)NC(=O)[C@H](CC(=O)O)NC(=O)CNC(=O)[C@H](CCC(=O)O)NC1=O)C(C)C
notes: also called Ac-Val-Tyr-[Cys(3MeBn)-Glu-Gly-Asp-Trp-Tle-Thr-Trp-Gln-Cys]-NH2
B14: 3BP-3731 (peptide)
peptide: Desaminotyrosyl-CE[dP]DWLTWSC-NH2
modifications: linker 1-10 via 3MeBn
notes: also called 4OHPhp-[Cys(3MeBn)-Glu-pro-Asp-Trp-Leu-Thr-Trp-Ser-Cys]-NH2
B15: 3BP-2949 (peptide)
peptide: Ac-VYCEGDWLTWQC[Ttds(4)][dK](DOTA)-NH2
modifications: linker 3-12 via mXylylene
SMILES: CC(=O)N[C@H](C(=O)N[C@@H](Cc1ccc(O)cc1)C(=O)N[C@H]1CSCc2cccc(c2)CSC[C@@H](C(=O)NCCCOCCOCCOCCCNC(=O)CCC(=O)N[C@H](CCCCNC(=O)CN2CCN(CC(=O)O)CCN(CC(=O)O)CCN(CC(=O)O)CC2)C(N)=O)NC(=O)[C@H](CCC(N)=O)NC(=O)[C@H](Cc2c[nH]c3ccccc23)NC(=O)[C@H]([C@@H](C)O)NC(=O)[C@H](CC(C)C)NC(=O)[C@H](Cc2c[nH]c3ccccc23)NC(=O)[C@H](CC(=O)O)NC(=O)CNC(=O)[C@H](CCC(=O)O)NC1=O)C(C)C
B16: 3BP-3328 (peptide)
peptide: VYCEGDWLTWQC-NH2
modifications: linker 3-12 via mXylylene; not fully specified (N-terminus); also: indium complexed by DOTA
B17: 3BP-3741 (peptide)
peptide: Isovaleryl-RCE[dP]DWLTWE([Apr-AEEA-DOTA])C-NH2
modifications: linker 2-11 via 3MeBn; reading uncertain
notes: also called Iva-Arg-[Cys(3MeBn)-Glu-pro-Asp-Trp-Leu-Thr-Trp-Glu(NH-Apr-O2Oc-DOTA′)-Cys]-NH2
B18: 3BP-3871 (peptide)
peptide: Isovaleryl-DCE[dP]DWLTWE([Apr-AEEA-DOTA])C-NH2
modifications: linker 2-11 via mXylylene; reading uncertain
notes: also called Iva-Asp-[Cys(3MeBn)-Glu-pro-Asp-Trp-Leu-Thr-Trp-Glu(NH-Apr-O2Oc-DOTA′)-Cys]-NH2
B19: 3BP-3872 (peptide)
peptide: Isovaleryl-ECE[dP]DWLTWE([Apr-AEEA-DOTA])C-NH2
modifications: linker 2-11 via mXylylene; reading uncertain
notes: also called Iva-Glu-[Cys(3MeBn)-Glu-pro-Asp-Trp-Leu-Thr-Trp-Glu(NH-Apr-O2Oc-DOTA′)-Cys]-NH2

Starred links: 1 amine or outer side, 2 acyl side, 3 side chain; linkers in the order of their positions; H or OH if unused. Positions of bridges follow the written chain, without caps; N, C: chain ends. Non-standard residues stand in square brackets, D forms with d. Groups on a side chain read outwards from the residue. Primed or numbered codes have the meaning given here. No end group written: not given here. *: point of attachment. Ttds(4) = 1,13-diamino-4,7,10-trioxatridecan-succinamic acid spacer, O=C(CCC(=O)[*:2])NCCCOCCOCCOCCCN[*:1]; Phe(3-NHCO(CH2)3SO2NH2) = N[C@@H](Cc1cccc(NC(=O)CCCS(N)(=O)=O)c1)C(=O)O; DOTA = O=C(O)CN1CCN(CC(=O)O)CCN(CC(=O)*)CCN(CC(=O)O)CC1; Trp(5-Cl) = N[C@@H](Cc1c[nH]c2ccc(Cl)cc12)C(=O)O; Trp(5-OH) = N[C@@H](Cc1c[nH]c2ccc(O)cc12)C(=O)O; Desaminotyrosyl = O=C(CCc1ccc(O)cc1)*; mXylylene = c1cc(C[*:1])cc(C[*:2])c1; Bta = N[C@@H](Cc1csc2ccccc12)C(=O)O; Tic = O=C(O)[C@@H]1Cc2ccccc2CN1; Pen = CC(C)(S)[C@H](N)C(=O)O; Tle = CC(C)(C)[C@H](N)C(=O)O; Isovaleryl = CC(C)CC(=O)*; PPAc″ = not defined here; Apr = not defined here; AEEA = NCCOCCOCC(=O)O; Aib = CC(C)(N)C(=O)O; Ttds″ = Ttds spacer; Sar = CNCC(=O)O Bounds are passed on as bounds.

The first assay has as its target human carbonic anhydrase IX (CAIX) (human, UniProt Q16790 38-459). As to the kind of experiment: FACS competition, HT-29 cells, tracer 3BP-2776; pIC50 category A: >8.0. As for the experimental part:
(§1) CAIX-expressing human HT-29 colorectal cancer cells (DSMZ, RRID: CVCL_0320) were cultured in McCoys's 5A modified medium (Biochrom, #F1015) including 10% fetal calf serum (FCS), 2 mM L-glutamine, 100 U/ml penicillin and 100 μg/mL streptomycin. Cells were detached with Accutase (Biolegend, #423201) and washed in FACS buffer (PBS including 1% FCS). Cells were diluted in FACS buffer to a final concentration of 500.000 cells per ml. 200 μL of the cell suspension were transferred to a u-shaped non-binding 96-well plate (Greiner) and cells were washed in ice-cold FACS buffer.
(§2) When biotinylated compounds were used an additional incubation step with 1 μg/mL APC-Streptavidin (Miltenyi; #130-106-791) in 50 μL FACS buffer for 30 minutes on ice was performed.
(§3) Cells were washed twice with ice-cold FACS buffer and analyzed in an Attune NxT flow cytometer (Thermo Fisher). Median fluorescence intensities (MFI) of the APC/Cy5-channel were calculated by Attune NxT software.
For B1, the pIC50 was greater than 8 pic50.

B2 returned a pIC50 greater than 8 pic50.

A further assay deals with T1, human carbonic anhydrase 9 (CAIX) (human, UniProt Q16790 38-459). As to the kind of experiment: FACS competition on HT-29 cells against tracer 3BP-2776; pIC50 category C = pIC50 6.1-7.0. As for the experimental part:
as §1, §2, §3
B3 came in with a pIC50 of 6.1 to 7 pic50.

The molecule B4 gave a pIC50 of 6.1 to 7 pic50.

In turn, B5 showed a pIC50 of 6.1 to 7 pic50.

A further assay addresses T1, human carbonic anhydrase 9 (CAIX). Briefly: FACS competition on HT-29 cells against tracer 3BP-2776; pIC50 category B = pIC50 7.1-8.0. As for the experimental part:
as §1, §2, §3
With B6, the pIC50 was 7.1 to 8 pic50.

The molecule B7 showed a pIC50 of 7.1 to 8 pic50.

In the case of B8, the pIC50 was 7.1 to 8 pic50.

In turn, B9 displayed a pIC50 of 7.1 to 8 pic50.

Molecule B10 yielded a pIC50 of 7.1 to 8 pic50.

Consider B11, for which the pIC50 is 7.1 to 8 pic50.

The molecule B12 registered a pIC50 of 7.1 to 8 pic50.

B13 displayed a pIC50 of 7.1 to 8 pic50.

Turning to B14, the pIC50 lay within 7.1 to 8 pic50.

B15 yielded a pIC50 of 7.1 to 8 pic50.

B16 gave a pIC50 of 7.1 to 8 pic50.

B17 returned a pIC50 of 7.1 to 8 pic50.

In the case of B18, the pIC50 lay in the range of 7.1 to 8 pic50.

In turn, B19 returned a pIC50 of 7.1 to 8 pic50.
